Data from US20230357348A1 (AstraZeneca / MedImmune, published 2023).
Starred links: 1 amine or outer side, 2 acyl side, 3 side chain; linkers in the order of their positions; H or OH if unused. Non-standard residues stand in square brackets, D forms with d. Groups on a side chain read outwards from the residue. No end group written: not given here. *: point of attachment. C20 diacid = O=C(O)CCCCCCCCCCCCCCCCCCC(=O)*; C18 diacid = O=C(O)CCCCCCCCCCCCCCCCC(=O)*; γGlu = O=C(O)[C@H](CCC(=O)[*:2])N[*:1]; αMeF = C[C@](N)(Cc1ccccc1)C(=O)O; AEEA = NCCOCCOCC(=O)O; Aib = CC(C)(N)C(=O)O

B1: Peptide 411 (peptide)
peptide: H[Aib]QGTFTSDVSK[αMeF]LDTK([AEEA-AEEA-γGlu-C18 diacid])RAQDFVAWLEAGG-OH
modifications: N-terminus assumed
SMILES: CC(C)C[C@H](NC(=O)[C@H](Cc1c[nH]c2ccccc12)NC(=O)[C@H](C)NC(=O)[C@@H](NC(=O)[C@H](Cc1ccccc1)NC(=O)[C@H](CC(=O)O)NC(=O)[C@H](CCC(N)=O)NC(=O)[C@H](C)NC(=O)[C@H](CCCNC(=N)N)NC(=O)[C@H](CCCCNC(=O)COCCOCCNC(=O)COCCOCCNC(=O)CC[C@H](NC(=O)CCCCCCCCCCCCCCCCC(=O)O)C(=O)O)NC(=O)[C@@H](NC(=O)[C@H](CC(=O)O)NC(=O)[C@H](CC(C)C)NC(=O)[C@](C)(Cc1ccccc1)NC(=O)[C@H](CCCCN)NC(=O)[C@H](CO)NC(=O)[C@@H](NC(=O)[C@H](CC(=O)O)NC(=O)[C@H](CO)NC(=O)[C@@H](NC(=O)[C@H](Cc1ccccc1)NC(=O)[C@@H](NC(=O)CNC(=O)[C@H](CCC(N)=O)NC(=O)C(C)(C)NC(=O)[C@@H](N)Cc1c[nH]cn1)[C@@H](C)O)[C@@H](C)O)C(C)C)[C@@H](C)O)C(C)C)C(=O)N[C@@H](CCC(=O)O)C(=O)N[C@@H](C)C(=O)NCC(=O)NCC(=O)O
B2: Peptide 412 (peptide)
peptide: H[Aib]QGTFTSDVSK[αMeF]LDTK([AEEA-AEEA-γGlu-C20 diacid])RAQDFVAWLEAGG-OH
modifications: N-terminus assumed
SMILES: CC(C)C[C@H](NC(=O)[C@H](Cc1c[nH]c2ccccc12)NC(=O)[C@H](C)NC(=O)[C@@H](NC(=O)[C@H](Cc1ccccc1)NC(=O)[C@H](CC(=O)O)NC(=O)[C@H](CCC(N)=O)NC(=O)[C@H](C)NC(=O)[C@H](CCCNC(=N)N)NC(=O)[C@H](CCCCNC(=O)COCCOCCNC(=O)COCCOCCNC(=O)CC[C@H](NC(=O)CCCCCCCCCCCCCCCCCCC(=O)O)C(=O)O)NC(=O)[C@@H](NC(=O)[C@H](CC(=O)O)NC(=O)[C@H](CC(C)C)NC(=O)[C@](C)(Cc1ccccc1)NC(=O)[C@H](CCCCN)NC(=O)[C@H](CO)NC(=O)[C@@H](NC(=O)[C@H](CC(=O)O)NC(=O)[C@H](CO)NC(=O)[C@@H](NC(=O)[C@H](Cc1ccccc1)NC(=O)[C@@H](NC(=O)CNC(=O)[C@H](CCC(N)=O)NC(=O)C(C)(C)NC(=O)[C@@H](N)Cc1c[nH]cn1)[C@@H](C)O)[C@@H](C)O)C(C)C)[C@@H](C)O)C(C)C)C(=O)N[C@@H](CCC(=O)O)C(=O)N[C@@H](C)C(=O)NCC(=O)NCC(=O)O
B3: Peptide 414 (peptide)
peptide: H[Aib]QGTFTSDVSK[αMeF]LDKK([AEEA-AEEA-γGlu-C18 diacid])RARDFVRWLL[Aib]E-OH
modifications: N-terminus assumed
SMILES: CC(C)C[C@H](NC(=O)[C@H](Cc1c[nH]c2ccccc12)NC(=O)[C@H](CCCNC(=N)N)NC(=O)[C@@H](NC(=O)[C@H](Cc1ccccc1)NC(=O)[C@H](CC(=O)O)NC(=O)[C@H](CCCNC(=N)N)NC(=O)[C@H](C)NC(=O)[C@H](CCCNC(=N)N)NC(=O)[C@H](CCCCNC(=O)COCCOCCNC(=O)COCCOCCNC(=O)CC[C@H](NC(=O)CCCCCCCCCCCCCCCCC(=O)O)C(=O)O)NC(=O)[C@H](CCCCN)NC(=O)[C@H](CC(=O)O)NC(=O)[C@H](CC(C)C)NC(=O)[C@](C)(Cc1ccccc1)NC(=O)[C@H](CCCCN)NC(=O)[C@H](CO)NC(=O)[C@@H](NC(=O)[C@H](CC(=O)O)NC(=O)[C@H](CO)NC(=O)[C@@H](NC(=O)[C@H](Cc1ccccc1)NC(=O)[C@@H](NC(=O)CNC(=O)[C@H](CCC(N)=O)NC(=O)C(C)(C)NC(=O)[C@@H](N)Cc1c[nH]cn1)[C@@H](C)O)[C@@H](C)O)C(C)C)C(C)C)C(=O)N[C@@H](CC(C)C)C(=O)NC(C)(C)C(=O)N[C@@H](CCC(=O)O)C(=O)O

Key:
[1] = target: human GLP-1 receptor (hGLP-1R) (human, UniProt P43220 24-463); experiment: cell-based or functional assay
[2] = target: human glucagon receptor (hGCGR) (human, UniProt P47871 26-477); experiment: cell-based or functional assay
Chain of human glucagon receptor (hGCGR) (P47871 26-477): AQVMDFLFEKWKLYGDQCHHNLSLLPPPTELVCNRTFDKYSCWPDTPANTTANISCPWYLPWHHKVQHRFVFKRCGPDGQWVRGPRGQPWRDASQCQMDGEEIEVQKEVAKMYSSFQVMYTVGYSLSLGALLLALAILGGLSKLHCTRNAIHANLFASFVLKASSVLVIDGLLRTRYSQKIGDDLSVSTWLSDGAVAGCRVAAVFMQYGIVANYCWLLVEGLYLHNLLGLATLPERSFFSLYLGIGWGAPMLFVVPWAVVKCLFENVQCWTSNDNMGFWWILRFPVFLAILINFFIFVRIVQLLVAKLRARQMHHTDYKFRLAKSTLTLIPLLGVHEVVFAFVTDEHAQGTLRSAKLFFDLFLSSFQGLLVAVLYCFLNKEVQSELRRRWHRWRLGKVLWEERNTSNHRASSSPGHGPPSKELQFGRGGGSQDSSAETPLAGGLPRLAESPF

Binder	hGLP-1R EC50 (pM) [1]	hGluc-R EC50 (pM) [2]
B1	98.1 pM	378 pM
B2	186 pM	397 pM
H[Aib]QGTFTSDVSK[αMeF]LDTK([AEEA-AEEA-γGlu-γGlu-C20 diacid])RAQDFVAWLEAGG-OH [Peptide 413]	406 pM	1020 pM
B3	32.3 pM	26.9 pM
